# Measured values published in article doi:10.1101/2022.09.16.508221 (bioRxiv, 2022).
# Values joined by “and” are separate entries in the source; they are usually repeats but may differ in a detail not shown here. Equal entries are not always repeated.
# What was measured:
# SEC = target: the molecule itself; assay: SEC
# mass photometry = target: the molecule itself; assay: mass photometry
protein,measurement,setting,value
"Hermes transposase (full-length, with the mutations Q2E and K128G) (enzyme, Musca domestica, UniProt Q25438 1-612, looked up) MEKMDNLEVKAKINQGLYKITPRHKGTSFIWNVLADIQKEDDTLVEGWVFCRKCEKVLKYTTRQTSNLCRHKCCASLKQSRELKTVSADCKKEAIEKCAQWVVRDCRPFSAVSGSGFIDMIKFFIKVGAEYGEHVNVEELLPSPITLSRKVTSDAKEKKALISREIKSAVEKDGASATIDLWTDNYIKRNFLGVTLHYHENNELRDLILGLKSLDFERSTAENIYKKLKAIFSQFNVEDLSSIKFVTDRGANVVKSLANNIRINCSSHLLSNVLENSFEETPELNMPILACKNIVKYFKKANLQHRLRSSLKSECPTRWNSTYTMLRSILDNWESVIQILSEAGETQRIVHINKSIIQTMVNILDGFERIFKELQTCSSPSLCFVVPSILKVKEICSPDVGDVADIAKLKVNIIKNVRIIWEENLSIWHYTAFFFYPPALHMQQEKVAQIKEFCLSKMEDLELINRMSSFNELSATQLNQSDSNSHNSIDLTSHSKDISTTSFFFPQLTQNNSREPPVCPSDEFEFYRKEIVILSEDFKVMEWWNLNSKKYPKLSKLALSLLSIPASSAASERTFSLAGNIITEKRNRIGQQTVDSLLFLNSFYKNFCKLDI",stoichiometry N,SEC,8 and 6
same,stoichiometry N,mass photometry,2
